Data set [1] addresses SARS-CoV-2 spike on Omicron pseudovirus (GFP-expressing) (SARS-CoV-2 Omicron) (UniProt P0DTC2). Put plainly: flow cytometry, bead-bound aptamer. (In flow cytometry, cells or beads pass a laser one at a time.)
For data set [2] the target is unchanged. Put plainly: flow cytometry, bead-bound aptamer. As to conditions: 5' hexynyl-iSp18-iSp18-iSp18 (PEG spacer).

Values joined by “and” are separate entries in the source; they are usually repeats but may differ in a detail not shown here. Equal values may be shown once.

As for “ATCCAGAGTGACGCAGCACCGACCTTGTGCTTTGGGAGTGCTGGTCCAAGGGCGTTAATGGACACGGTGGCTTAGT [Omicron PEG36 Particle Aptamer]”, the Kd in data set [1] (5' hexynyl-iSp18-iSp18-iSp18 (PEG spacer)) was 0.007 pM; in data set [2] it was 0.011 pM and 0.017 pM and 0.073 pM.

“TTTTTATCCAGAGTGACGCAGCACCGACCTTGTGCTTTGGGAGTGCTGGTCCAAGGGCGTTAATGGACACGGTGGCTTAGT [Omicron Particle Aptamer]” returned a Kd in data set [1] (5' hexynyl) of 0.01 pM.

Broadly, the Kd is the constant that tells how readily two partners part at equilibrium. A low value points to higher affinity.

For the origin of these results see article PMC12670994.
